Experimental findings from patent publication US20140248303A1 (ST JUDE CHILDREN S RESEARCH HOSPITAL, published 2014) are described below.

For the test, the target named is T1, 37/67 laminin receptor (LR) (Homo sapiens (Human), UniProt P08865 2-295).
T1 construct: also called LRP
The test is described as follows: adhesion of construct-labeled latex microspheres to fixed TNF-activated RBCEC6 cells.

B1: CbpA-R2 (other)
chain: PEKKVAEAEKKVEEAKKKAEDQKEEDRRNYPTNTYKTLELEIAESDVEVKKAELELVKEEAKEPRNEEKVKQAKAEVESKKAEATRLEKIKTDRKKAEEEAKRKAAEEDKVKEKP
With B1, the “bead adherence to RBCEC6 cells, % (compared with full length CbpA-NR12 beads)” value (“bead adherence to RBCEC6 cells, %” for short) amounted to 6% and the binding result was “no binding”.

B2: CbpA-R12 (construct containing domain 1 and domain 2) (other)
chain: EPGEKVAEAKKKVEEAEKKAKDQKEEDRRNYPTITYKTLELEIAESDVEVKKAELELVKVKANEPRDEQKIKQAEAEVESKQAEATRLKKIKTDREEAEEEAKRRADAKEQGKPKGRAKRGVPGELATPDKKENDAKSSDSSVGEETLPSPSLKPEKKVAEAEKKVEEAKKKAEDQKEEDRRNYPTNTYKTLELEIAESDVEVKKAELELVKEEAKEPRNEEKVKQAKAEVESKKAEATRLEKIKTDRKKAEEEAKRKAAEEDKVKEK
notes: On latex microspheres
Turning to B2, the “bead adherence to RBCEC6 cells, %” value came out at 226%.

B3: CbpA-N (domain N) (other)
chain: ENEGATQVPTSSNRANESQAEQGEQPKKLDSERDKARKEVEEYVKKIVGESYAKSTKKRHTITVALVNELNNIKNEYLNKIVESTSESQLQILMMESRSKVDEAVSKFEKDSSSSSSSDSSTKPEASDTAKPNKPT
notes: On latex microspheres
As for B3, the “bead adherence to RBCEC6 cells, %” value was 23% and the binding result is “no binding”.
